Measured values from paper PMC12246617, “Cryo-EM structures reveal the PP2A–B55α and Eya3 interaction that can be disrupted by a peptide inhibitor” (The Journal of Biological Chemistry, 2025).
Substitutions are numbered along the chain they refer to. Numbers in names are those of the source.

B1: ARPP19: a protein inhibitor that binds to both the B and C subunits (protein, UniProt P56211 2-112, looked up)
cAMP-regulated phosphoprotein …: SAEVPEAASAEEQKEMEDKVTSPEKAEEAKLKARYPHLGQKPGGSDFLRKRLQKGQKYFDSGDYNMAKAKMKNKQLPTAAPDKTEVTGDHIPTPQDLPQRKPSLVASKLAG
B2: FAM122A: a protein inhibitor that binds to both the B and C subunits (protein, UniProt Q96E09 1-287, looked up)
PPP2R1A-PPP2R2A-interacting …: MAQEKMELDLELPPGTGGSPAEGGGSGGGGGLRRSNSAPLIHGLSDTSPVFQAEAPSARRNSTTFPSRHGLLLPASPVRMHSSRLHQIKQEEGMDLINRETVHEREVQTAMQISHSWEESFSLSDNDVEKSASPKRIDFIPVSPAPSPTRGIGKQCFSPSLQSFVSSNGLPPSPIPSPTTRFTTRRSQSPINCIRPSVLGPLKRKCEMETEYQPKRFFQGITNMLSSDVAQLSDPGVCVSSDTLDGNSSSAGSSCNSPAKVSTTTDSPVSPAQAASPFIPLDELSSK
B3: K75A: Eya3 K75A mutant protein from E. coli (protein, UniProt Q99504 1-573, looked up, variant K75A)
Protein phosphatase EYA3: MEEEQDLPEQPVKKAKMQESGEQTISQVSNPDVSDQKPETSSLASNLPMSEEIMTCTDYIPRSSNDYTSQMYSAAPYAHILSVPVSETAYPGQTQYQTLQQTQPYAVYPQATQTYGLPPFGALWPGMKPESGLIQTPSPSQHSVLTCTTGLTTSQPSPAHYSYPIQASSTNASLISTSSTIANIPAAAVASISNQDYPTYTILGQNQYQACYPSSSFGVTGQTNSDAESTTLAATTYQSEKPSVMAPAPAAQRLSSGDPSTSPSLSQTTPSKDTDDQSRKNMTSKNRGKRKADATSSQDSELERVFLWDLDETIIIFHSLLTGSYAQKYGKDPTVVIGSGLTMEEMIFEVADTHLFFNDLEECDQVHVEDVASDDNGQDLSNYSFSTDGFSGSGGSGSHGSSVGVQGGVDWMRKLAFRYRKVREIYDKHKSNVGGLLSPQRKEALQRLRAEIEVLTDSWLGTALKSLLLIQSRKNCVNVLITTTQLVPALAKVLLYGLGEIFPIENIYSATKIGKESCFERIVSRFGKKVTYVVIGDGRDEEIAAKQHNMPFWRITNHGDLVSLHQALELDFL
B4: Y77A: Eya3 Y77A mutant protein from E. coli (protein, UniProt Q99504 1-573, looked up, variant Y77A)
Protein phosphatase EYA3: B3 Protein phosphatase EYA3 with A75K, Y77A
B5: Eya3 NTD: Eya3 N-terminal domain protein (NTD, residues 1–250) (protein, UniProt Q99504 1-250, looked up, fragment)
chain: MEEEQDLPEQPVKKAKMQESGEQTISQVSNPDVSDQKPETSSLASNLPMSEEIMTCTDYIPRSSNDYTSQMYSAKPYAHILSVPVSETAYPGQTQYQTLQQTQPYAVYPQATQTYGLPPFGALWPGMKPESGLIQTPSPSQHSVLTCTTGLTTSQPSPAHYSYPIQASSTNASLISTSSTIANIPAAAVASISNQDYPTYTILGQNQYQACYPSSSFGVTGQTNSDAESTTLAATTYQSEKPSVMAPAPA

How the values were obtained:
PP2A–B55 [1] = conditions: 6,8-difluoro-4-methylumbelliferyl phosphate substrate; cited from earlier work
Description: It is not surprising that ARPP19 and FAM122A inhibit the PP2A–B55 phosphatase activity since these two proteins bind on the surface of both B55 and C subunits, blocking access to the active site on C subunit.

B55α (His-B55) = assay: Microscale thermophoresis (MST) binding of Eya3 to labeled His-B55; design: species or system human; conditions: fluorescently labeled His-B55, vs Eya3 WT
Description: We expressed and purified Eya3 protein from Escherichia coli and the His-B55α subunit from insect cells (Fig. S1). In the remainder of the article, we will use B55 to represent B55α for simplicity and PP2A–B55 to represent the holoenzyme containing the A, B55, and C subunits. We labeled His-B55 with the RED–Tris–NTA dye and carried out microscale thermophoresis (MST) experiments with increasing concentrations of Eya3.
The modeled Eya3 peptide (residues 65–86) interacts mostly with residues on blades 3 and 4 of the β-propeller on the B55 surface (including residues on the β2D and β3A loop, β3B and β3C loop, and β3D and β4A loop) and with residues on the α1 and α2 helix positioned above blade 5, as well as the α2 and β6A loop (Fig. 1F). In particular, residue H79^Eya3 forms pi–pi or pi–cation stacking with H179^B55 and a hydrogen bond with D197^B55 (Fig. 2A). […] Furthermore, Y77^Eya3 forms a hydrogen bond with the main chain carbonyl of L225^B55, and K75^Eya3 forms another hydrogen bond with Y337^B55 (Fig. 2, B and C). […] We expressed and purified Eya3 K75A, Y77A, and H79A mutant proteins from E. coli and carried out MST experiments with fluorescently labeled His-B55. […] While we were working on the structure of PP2A–B55 + Eya3, Padi et al. ([84]) published the cryo-EM structure of PP2A–B55 in complex with an Eya3 peptide (residues 62–108) on bioRxiv.
FLAG-hB55, FLAG-hEya3, GFP, and GFP-B55i were cloned into the pCAG vector; (GST)-mEya3 was cloned into pGEX-6p1; His-hB56γ1 was cloned into pGEX-4T1; and His-hB55 was cloned in pFASTbac, all using the NEBuilder HiFi DNA Assembly Cloning Kit (New England Biolabs). h and m represent human and mouse proteins, respectively.
GST-mEya3 and mutants were expressed in BL21 cells. Cells were lysed in lysis buffer containing 50 mM Tris (pH 7.5), 250 mM NaCl, 5% glycerol, 1 mM DTT, and protease inhibitor cocktail (PIC; Thermo Scientific). Lysis was done in ice with sonication using 4 × 45 s pulses with 2-min off periods. NaCl was brought up to 0.5 M using 5 M NaCl, and the lysate was centrifuged for 40 min at 18,000g. Supernatant was gravity-flown over glutathione resin twice. Resin was washed with 100 ml of lysis buffer. GST was cleaved with PreScission protease and eluted into lysis buffer. Eluates were pooled and concentrated with Amicon Ultra Centrifugal filters. Concentrated protein was separated on a pre-equilibrated S200 column for size-exclusion chromatography. Peaks were combined, concentrated again, aliquoted, and stored at −80 °C.
His-B55 was expressed in Hi5 cells. […]
His-B55 or His-B56γ1 labeled with […] (NanoTemper) was added to serial dilutions of mEya3 in PBS with 0.05% Tween-20. The samples were then read with a Monolith NT.115^Pico (NanoTemper) according to the manufacturer’s instructions.

[2] = system: apparent S/T phosphatase activity of Eya3; conditions: Eya3 mutant; cited from earlier work
Description: The modeled Eya3 peptide (residues 65–86) interacts mostly with residues on blades 3 and 4 of the β-propeller on the B55 surface (including residues on the β2D and β3A loop, β3B and β3C loop, and β3D and β4A loop) and with residues on the α1 and α2 helix positioned above blade 5, as well as the α2 and β6A loop (Fig. 1F). In particular, residue H79^Eya3 forms pi–pi or pi–cation stacking with H179^B55 and a hydrogen bond with D197^B55 (Fig. 2A). […] Furthermore, Y77^Eya3 forms a hydrogen bon ...

PP2A–B55 [3] = assay: Fluorescent phosphatase assay with OMFP substrate; type: biochemical, human; conditions: three independent biological replicates
Description: We noted that the buffer condition we used in our assay (50 mM Tris [pH 7.5], 50 mM NaCl, 5 mM MgCl2, and 0.1 mM EDTA) is substantially different from that used by Padi et al. (30 mM Hepes [pH 7.0], 150 mM NaCl, 1 mM MnCl2, 1 mM DTT, 0.01% Triton X-100, and 0.1 mg/ml bovine serum albumin) ([46], [84]).
Figure 5 Eya3 NTD and B55i inhibit the phosphatase activity of PP2A–B55.A, the phosphatase activity of PP2A–B55 in the absence and presence of Eya3 NTD in a fluorescent phosphatase assay using OMFP as a substrate under our previous buffer conditions ([46]). […] RFU, relative fluorescence units; NTD, N-terminal domain; OMFP, 3-O-methylfluorescein phosphate. […]
FLAG-PP2A–B55 was expressed and purified from cells transfected with pCAG-FLAG-B55, using the same method as FLAG-hEya3. […] Proteins were analyzed by SDS-PAGE, and fractions containing the PP2A–B55α holoenzyme were pooled, concentrated, aliquoted, and stored at −80 °C.
PP2A–B55 holoenzyme (25 nM) with or without 1 μM Eya3 NTD in 30 mM Hepes (pH 7.0), 150 mM NaCl, 1 mM MnCl2, 1 mM DTT, 0.01% Triton X-100, 0.1 mg/ml bovine serum albumin was incubated at room temperature for 10 min. […] Fluorescent OMFP, corresponding to phosphatase activity, was read using a BioTek Synergy H1 plate reader (excitation at 485 nm and emission at 515 nm).

Row | Molecule | phosphatase activity of PP2A–B55 in vitro (PP2A–B55 [1]) | binding between Eya3 and B55 (mutants) (B55α (His-B55)) | also measured
1 | B1 | inhibit the phosphatase activity of PP2A–B55 in vitro |  | 
2 | B2 | inhibit the phosphatase activity of PP2A–B55 in vitro |  | 
3 | B3 |  | significantly reduce the binding between Eya3 and B55 | 
4 | B4 |  | significantly reduce the binding between Eya3 and B55 | apparent S/T phosphatase activity of Eya3 [2]: abolish the apparent S/T phosphatase activity of Eya3
5 | B5 |  |  | phosphatase activity of PP2A–B55 (Padi et al. buffer) (PP2A–B55 [3]; 25 nM PP2A–B55, 1 μM Eya3 NTD, 30 mM Hepes (pH 7.0), 150 mM NaCl, 1 mM MnCl2, 1 mM DTT, 0.01% Triton X-100, 0.1 mg/ml BSA, room temperature 10 min, then 37 °C 30 min, ex 485/em 515 nm): inhibits the phosphatase activity of PP2A–B55; phosphatase activity of PP2A–B55 (previous buffer) (PP2A–B55 [3]; buffer 50 mM Tris [pH 7.5], 50 mM NaCl, 5 mM MgCl2, 0.1 mM EDTA, with vs without Eya3 NTD): increases the phosphatase activity of PP2A–B55
